Results: PMC6396125 (ACS Omega, 2019)
Several values for one entry are separate records, joined by “and”; a condition that tells them apart may be missing. Identical values can stand only once. Like-named read-outs stand apart in the source and are kept apart here. Ends that are not written are not given here.

Columns and labels:
L. lactis OppA = biological target: T1, L. lactis OppA (Lactococcus lactis subsp. lactis, UniProt Q07741); experiment: Fluorescence anisotropy competition binding assay
T1 sequence (Q07741 35-600 limits assumed): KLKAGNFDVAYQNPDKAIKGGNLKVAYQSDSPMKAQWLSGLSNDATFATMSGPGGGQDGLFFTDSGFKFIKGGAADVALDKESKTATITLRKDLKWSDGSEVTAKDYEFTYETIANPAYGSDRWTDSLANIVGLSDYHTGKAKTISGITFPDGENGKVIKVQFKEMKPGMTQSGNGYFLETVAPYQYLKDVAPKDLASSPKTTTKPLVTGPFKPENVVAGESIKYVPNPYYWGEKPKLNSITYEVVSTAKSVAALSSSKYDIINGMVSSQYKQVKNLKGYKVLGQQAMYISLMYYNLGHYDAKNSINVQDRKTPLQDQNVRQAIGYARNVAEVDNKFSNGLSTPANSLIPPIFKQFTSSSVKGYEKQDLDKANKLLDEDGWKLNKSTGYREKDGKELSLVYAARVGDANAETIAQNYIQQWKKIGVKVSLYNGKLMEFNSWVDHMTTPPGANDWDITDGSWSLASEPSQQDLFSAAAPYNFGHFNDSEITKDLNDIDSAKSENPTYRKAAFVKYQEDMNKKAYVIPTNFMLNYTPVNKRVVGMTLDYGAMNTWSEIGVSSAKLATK

[1] = biological target: Lactococcus lactis oligopeptide-binding protein A (OppA) (Lactococcus lactis subspecies cremoris MG1363); experiment: fluorescence polarisation
[2] = biological target: Lactococcus lactis oligopeptide-binding protein A (OppA) (Lactococcus lactis subspecies cremoris MG1363); experiment: fluorescence polarisation; remark: listed apart in the source
[3] = biological target: Lactococcus lactis oligopeptide-binding protein A (OppA) (Lactococcus lactis subspecies cremoris MG1363); experiment: fluorescence polarisation; remark: listed apart in the source
[4] = biological target: Lactococcus lactis oligopeptide-binding protein A (OppA) (Lactococcus lactis subspecies cremoris MG1363); experiment: fluorescence polarisation; remark: listed apart in the source
[5] = biological target: bradykinin labeled with sulforhodamine 101 on the C-terminus; experiment: fluorescence polarisation

Compound: SFRNGVGSGVKKTSFRRAKQ [neuropeptide S]
- IC50 from competition binding assay (L. lactis OppA; pH 6, 30 °C, vs prebound bradykinin-SR101 (1 μM) + OppA (15 μM) mixture, at least 1 h, mean ± SD, n = 3): no fit

Compound: bradykinin (peptide)
- Kd [1]: 0.4 µM
- IC50 [2]: 5.2 µM
- Kd [2]: 0.13 µM
- IC50 [3]: 5.1 µM and 5.3 µM and 5.6 µM
- Kd [3]: < 0.1 µM and 0.31 µM
- Kd [4]: 0.2 µM and 0.36 µM and 0.7 µM

Compound: CC[C@H](C)[C@H](NC(=O)[C@H](CCCNC(=N)N)NC(=O)[C@H](CCCNC(=N)N)NC(=O)[C@H](CC(C)C)NC(=O)[C@H](Cc1ccccc1)NC(=O)CNC(=O)CNC(=O)[C@@H](N)Cc1ccc(O)cc1)C(=O)N[C@@H](CCCNC(=N)N)C(=O)N1CCC[C@H]1C(=O)N[C@@H](CCCCN)C(=O)N[C@@H](CC(C)C)C(=O)N[C@@H](CCCCN)C(=O)N[C@@H](Cc1c[nH]c2ccccc12)C(=O)N[C@@H](CC(=O)O)C(=O)N[C@@H](CC(N)=O)C(=O)N[C@@H](CCC(N)=O)C(=O)O [dynorphin-A (1–17)]
- Kd (L. lactis OppA): 3.3 ± 0.6 µM

Compound: YGGFLRRIR [dynorphin-A (1–9)]
- Kd (L. lactis OppA): 13.3 ± 0.7 µM

Compound: neuropeptide S
- Kd [2]: 1800 µM

Compound: leu-enkephalin (peptide)
- IC50 [2]: 2000 µM

Compound: Lactococcus lactis oligopeptide-binding protein A (OppA) (natural protein)
- Kd [5]: 22.9 µM and 15.4 µM

Compound: SLSQSKVLPVPQ [casein-derived peptide]
- Kd (L. lactis OppA): 0.2 ± 0.01 µM

Compound: dynorphin-A (1–17) (peptide)
- IC50 [2]: 11 µM
- Kd [2]: 3.3 µM

Compound: dynorphin-A (1–9) (peptide)
- IC50 [2]: 34.2 µM
- Kd [2]: 13.3 µM
